Source: patent US20140099280A1

T1: whole human interleukin 33 (IL-33aa1-270)
T1 chain: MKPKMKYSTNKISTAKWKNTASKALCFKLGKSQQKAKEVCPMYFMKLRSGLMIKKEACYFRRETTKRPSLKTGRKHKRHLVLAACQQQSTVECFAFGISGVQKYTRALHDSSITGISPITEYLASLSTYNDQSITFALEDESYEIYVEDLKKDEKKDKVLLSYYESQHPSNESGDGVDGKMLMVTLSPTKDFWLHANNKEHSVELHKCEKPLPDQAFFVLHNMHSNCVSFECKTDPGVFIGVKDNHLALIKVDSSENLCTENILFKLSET

T2: truncated human IL-33 (IL-33aa112-270)
T2 chain: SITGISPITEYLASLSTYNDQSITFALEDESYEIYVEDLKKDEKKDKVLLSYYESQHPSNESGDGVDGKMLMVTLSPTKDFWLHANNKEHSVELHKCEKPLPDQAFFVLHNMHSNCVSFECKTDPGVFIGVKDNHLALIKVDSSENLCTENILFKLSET

B1: human cathepsin G (protein)
chain: IIGGRESRPHSRPYMAYLQIQSPAGQSRCGGFLVREDFVLTAAHCWGSNINVTLGAHNIQRRENTQQHITARRAIRHPQYNQRTIQNDIMLLQLSRRVRRNRNVNPVALPRAQEGLRPGTLCTVAGWGRVSMRRGTDTLREVQLRVQRDRQCLRIFGSYDPRRQICVGDRRERKAAFKGDSGGPLLCNNVAHGIVSYGKSSGVPPEVFTRVSSFLPWIRTTMRS
B2: neutrophil elastase 2 (protein)
chain: IVGGRRARPHAWPFMVSLQLRGGHFCGATLIAPNFVMSAAHCVANVNVRAVRVVLGAHNLSRREPTRQVFAVQRIFENGYDPVNLLNDIVILQLNGSATINANVQVAQLPAQGRRLGNGVQCLAMGWGLLGRNRGIASVLQELNVTVVTSLCRRSNVCTLVRGRQAGVCFGDSGSPLVCNGLIHGIASFVRGGCASGLYPDAFAPVAQFVNWIDSIIQ
B3: leukocyte proteinase 3 (protein)
chain: IVGGHEAQPHSRPYMASLQMRGNPGSHFCGGTLIHPSFVLTAAHCLRDIPQRLVNVVLGAHNVRTQEPTQQHFSVAQVFLNNYDAENKLNDVLLIQLSSPANLSASVATVQLPQQDQPVPHGTQCLAMGWGRVGAHDPPAQVLQELNVTVVTFFCRPHNICTFVPRRKAGICFGDSGGPLICDGIIQGIDSFVIWGCATRLFPDFFTRVALYVDWIRSTLR

molecular target: ST2 receptor on murine MC/9 mast cells (murine (MC/9 mast cell line)) (UniProt P14719); assay: cell-based or functional assay
Chain of UniProt P14719 (P14719 27-567): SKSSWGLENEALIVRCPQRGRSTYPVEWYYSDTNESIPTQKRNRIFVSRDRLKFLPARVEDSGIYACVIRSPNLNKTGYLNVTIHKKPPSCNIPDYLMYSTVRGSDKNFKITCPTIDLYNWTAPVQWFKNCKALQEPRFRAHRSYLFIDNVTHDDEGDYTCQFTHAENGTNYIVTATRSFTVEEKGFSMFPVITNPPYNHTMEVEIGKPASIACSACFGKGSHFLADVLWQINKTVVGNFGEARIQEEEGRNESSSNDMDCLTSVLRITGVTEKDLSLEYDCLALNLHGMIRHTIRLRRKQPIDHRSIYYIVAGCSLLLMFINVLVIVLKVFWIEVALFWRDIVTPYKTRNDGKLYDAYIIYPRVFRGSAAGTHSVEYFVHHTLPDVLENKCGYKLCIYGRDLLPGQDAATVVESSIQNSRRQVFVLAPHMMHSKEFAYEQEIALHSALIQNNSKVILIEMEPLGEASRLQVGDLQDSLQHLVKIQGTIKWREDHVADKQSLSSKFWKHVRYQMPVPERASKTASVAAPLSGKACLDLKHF

**Q.** For “IL-33aa99-270 (from UniProt O95760 99-270) (ligand)”, which secretion of IL-6 by MC/9 mast cells (ELISA), relative to whole IL-33 (fold vs whole IL-33) is on record?
**A.** The secretion of IL-6 by MC/9 mast cells (ELISA), relative to whole IL-33 (fold vs whole IL-33) was 4.

**Q.** For “IL-33aa109-270 (from UniProt O95760 109-270) (ligand)”, which secretion of IL-6 by MC/9 mast cells (ELISA), relative to whole IL-33 (fold vs whole IL-33) is on record?
**A.** Its secretion of IL-6 by MC/9 mast cells (ELISA), relative to whole IL-33 (fold vs whole IL-33) is 4.

**Q.** For “IL-33aa95-270 (from UniProt O95760 95-270) (ligand)”, which secretion of IL-6 by MC/9 mast cells (ELISA), relative to whole IL-33 (fold vs whole IL-33) is on record?
**A.** The secretion of IL-6 by MC/9 mast cells (ELISA), relative to whole IL-33 (fold vs whole IL-33) was 4.

Molecular target: T1, whole human interleukin 33 …
Assay: not given

**Q.** B1 was tested. Which “cleavage in vitro, SDS-PAGE and western blot” value did it give?
**A.** The value was “Human IL-33 is the target of the recombinant proteases Cathepsin G (Cat G), Elastase 2 (Elastase), and Proteinase 3 (PR3), which generate, in vitro, the three mature fragments IL-33aa95-270, IL-33aa99-270 and IL-33aa109-270”.

**Q.** With B2 as the molecule, how does the “cleavage in vitro, SDS-PAGE and western blot” value read?
**A.** Its value is “Human IL-33 is the target of the recombinant proteases Cathepsin G (Cat G), Elastase 2 (Elastase), and Proteinase 3 (PR3), which generate, in vitro, the three mature fragments IL-33aa95-270, IL-33aa99-270 and IL-33aa109-270”.

**Q.** Which “cleavage in vitro, SDS-PAGE and western blot” value does the source give for B3 here?
**A.** The value was “Human IL-33 is the target of the recombinant proteases Cathepsin G (Cat G), Elastase 2 (Elastase), and Proteinase 3 (PR3), which generate, in vitro, the three mature fragments IL-33aa95-270, IL-33aa99-270 and IL-33aa109-270”.

Molecular target: T2, truncated human IL-33 (IL-33aa112-270)
Assay: not given

**Q.** Which “cleavage in vitro, western blot” value does the source give for B1 here?
**A.** Its value is “the truncated form IL-33aa112-270, which remains intact in the presence of these proteases”.

**Q.** How did the “cleavage in vitro, western blot” value turn out when B2 was run?
**A.** The value was “the truncated form IL-33aa112-270, which remains intact in the presence of these proteases”.

**Q.** B3 was tested. Which “cleavage in vitro, western blot” value did it give?
**A.** Its value is “the truncated form IL-33aa112-270, which remains intact in the presence of these proteases”.
